This is an account of results in US20180244762A1 (KODIAK SCIENCES, published 2018).

Test [1] deals with T1, recombinant human PDGF-BB (human, UniProt P01127 82-190). As to the kind of experiment: cell-based or functional assay.
The target in test [2] is T1, recombinant human PDGF-BB. Put plainly: competitive ELISA: binder preincubated with 0.2 nM rhPDGF-BB, competitor immobilized PDGFR/Fc. (In general: An ELISA detects its analyte on a solid surface through an enzyme-linked reagent.)
In test [3] the target is T1, recombinant human PDGF-BB. As to the kind of experiment: optical biosensor (Proteon XPR36 / Biacore 2000), binder amine-coupled, rhPDGF-BB injected, 25 C. The method, then:
Binding studies were performed at 25° C. and 37° C. using BioRad Proteon XPR36 and Biacore 2000 optical biosensors equipped with GLM (Proteon) and CM4 (Biacore) sensor chips and equilibrated with running buffer (10 m/M HEPES, 150 mM NaCl, 0.005% Teen-20, 0.2 mg/ml BSA).

The target in test [4] is T1, recombinant human PDGF-BB. As to the kind of experiment: competitive ELISA: OG1448 preincubated with 0.2 nM PDGF-BB plus rhVEGFA-165 at 0.2, 0.6 and 1.0 nM, competitor immobilized PDGFRb/Fc; in the presence of rhVEGFA-165 (0.2, 0.6 and 1.0 nM).
Test [5] concerns the target T1, recombinant human PDGF-BB. Put plainly: SPR (Biacore T200, 25 C), binder captured by anti-human IgG, PDGF-BB as analyte, run A. The method, then: (§1) Each PDGF/VEGF variant was captured to a level of approximately 150 RUs. The running and sample buffer for the PDGF analysis was HBS-EP+300mM NaCl (10 mM 4-(2-hydroxyethyl)-1-piperazineethanesulfonic acid (HEPES) pH 7.4, 300 mM NaCl, 3mM ethylenediaminetetraacetic acid (EDTA), 0.05% (v/v) Tween-20). […] The surface was then regenerated with a 30 second pulse of 3M MgCl₂, a 30 second pulse of an ionic regeneration buffer (0.46M KSCN, 1.83 M MgCl2, 0.92 M urea, and 1.83 M guanidine-HCI pH7.4, Andersson et al., Analytical Chemistry, 1999) and then equilibrated with a 30 second pulse of HBS-EP+ 300 mM NaCl running buffer.
(§2) All SPR assays were performed at 25° C. with a data collection rate of1Hz using a Biacore T200 instrument (GE Healthcare). The resulting PDGP and VEGP sensorgrams were double referenced using both a control surface and buffer injections. The rate constants were determined by fitting the data to a 1:1 Langmuir model with Biacore T200 evaluation software v2.0 and the equation […].
In general terms: SPR reads the build-up and loss of mass on a sensor chip optically.

The target of test [6] is T1, recombinant human PDGF-BB. As to the kind of experiment: SPR (Biacore T200, 25 C), binder captured by anti-human IgG, PDGF-BB as analyte, run B. The method, then:
as §1, §2

Test [7] deals with T1, recombinant human PDGF-BB. As to the kind of experiment: SPR (Biacore T200, 25 C), binder captured by anti-human IgG, PDGF-BB as analyte, run C. How it is done:
as §1, §2

Test [8] has as its target T1, recombinant human PDGF-BB. As to the kind of experiment: SPR (Biacore T200, 25 C), binder captured by anti-human IgG, PDGF-BB as analyte, average of the runs. How it is done: as §1, §2

T1 sequence (P01127 82-190): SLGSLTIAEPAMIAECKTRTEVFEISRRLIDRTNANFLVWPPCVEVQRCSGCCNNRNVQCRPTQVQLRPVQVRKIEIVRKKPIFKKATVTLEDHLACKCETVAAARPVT

B1: OG1448 (TAF443 conjugated to the OG1802 biopolymer) (other)
heavy: LVVTPPGPELVLNVSSTFVLTCSGSAPVVWERMSQEPPQEMAKAQDGTFSSVLTLTNLTGLDTGEYFCTHNDSRGLETDERKRLYIFVPDPTVGFLPNDAEELFIFLTEITEITIPCRVTDPQLVVTLHEKKGDVALPVPYDHQRGFSGIFEDRSYICKTTIGDREVDSDAYYVYRLQVSSINVSVNAVQTVVRQGENITLMCIVIGNEVVNFEWTYPRKESGRLVEPVTDFLLDMPYHIRSILHIPSAELEDSGTYTCNVTESVNDHQDEKAINITVVESGGGGGSGGGGSEVQLVESGGGLVQPGGSLRLSCAASGYDFTHYGMNWVRQAPGKGLEWVGWINTYTGEPTYAADFKRRFTFSLDTSKSTAYLQMNSLRAEDTAVYYCAKYPYYYGTSHWYFDVWGQGTLVTVSSASTKGPSVFPLAPSSKSTSGGTAALGCLVKDYFPEPVTVSWNSGALTSGVHTFPAVLQSSGLYSLSSVVTVPSSSLGTQTYICNVNHKPSNTKVDKKVEPKSCDKTHTCPPCPAPEAAGAPSVFLFPPKPKDTLMISRTPEVTCVVVDVSHEDPEVKFNWYVDGVEVHNAKTKPREEQYNSTYRVVSVLTVLHQDWLNGKEYKCKVSNKALPAPIEKTISKAKGQPREPQVYTLPPSREEMTKNQVSLTCLVKGFYPSDIAVEWESNGQPENNYKTTPPVLDSDGSFFLYSKLTVDKSRWQQGNVFSCSVMHEALHNHYTQKSLSCSPGK
light: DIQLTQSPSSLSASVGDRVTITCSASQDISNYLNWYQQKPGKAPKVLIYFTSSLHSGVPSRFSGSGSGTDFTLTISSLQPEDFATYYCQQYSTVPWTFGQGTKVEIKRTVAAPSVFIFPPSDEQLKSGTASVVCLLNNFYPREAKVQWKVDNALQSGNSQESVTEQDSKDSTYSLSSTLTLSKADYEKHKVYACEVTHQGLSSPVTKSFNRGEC
modifications: OG1802 biopolymer (about 750 kDa, 9-arm HEMA-PC, maleimide) on the cysteine 443 residue (L443C, EU numbering)
notes: also called TAF443 polymer conjugate
Regarding B1, in test [1], the “Inhibition of PDGF induced proliferation of HPVPs, IC50” value was 2900 pM. In addition, the values for the IC50 in test [2] and in test [4] were 54 pM and 25 pM, respectively. Besides, the dissociation constant (Kd) – broadly, the free concentration of one partner at which half of the binding sites on the other are occupied at equilibrium, for simple one-to-one binding – in test [3] came out at 17 pM.

B2: TAF443-3A250K (other)
heavy: B1 heavy
light: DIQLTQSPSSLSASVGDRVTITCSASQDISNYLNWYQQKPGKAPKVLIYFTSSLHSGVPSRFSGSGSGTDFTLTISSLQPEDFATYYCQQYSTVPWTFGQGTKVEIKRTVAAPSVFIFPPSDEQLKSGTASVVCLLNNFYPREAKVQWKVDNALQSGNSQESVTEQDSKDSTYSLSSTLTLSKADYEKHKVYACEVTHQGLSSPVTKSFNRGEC
modifications: polymer conjugate, label 3A250K; polymer and attachment site not described for this conjugate
notes: also called R3644-3A
Turning to B2, the Kd in test [5] came out at 1.03 pM; in test [6], 1.73 pM; in test [7], 1.6 pM; in test [8], 1.5 pM. For the same molecule, the koff (in general, a measure of how fast the partners let go of each other) in test [5] is 5.92e-05 s⁻¹; in test [6], 4.96e-05 s⁻¹; in test [7], 7.52e-05 s⁻¹. For the same molecule, the kon (as a rule, the rate constant with which the complex forms) in test [5] turned out to be 5.76e+07 M⁻¹ s⁻¹; in test [6] it was 2.86e+07 M⁻¹ s⁻¹; in test [7] it was 4.71e+07 M⁻¹ s⁻¹. For the same molecule, the t½ (commonly the time needed for the level to fall by half in the phase considered) in test [5] was determined as 3.25 h; in test [6] it was 3.88 h; in test [7] it was 2.56 h.
